{"source": "paper PMC2655673", "experiment_in_all_cases": "SFM DNA tethering", "key": {"[1]": {"target": "RAD50;MRE11 (Homo sapiens;Homo sapiens) (UniProt Q92878+P49959)"}, "[2]": {"target": "RAD50;MRE11;NBS1 (Homo sapiens;Homo sapiens;Homo sapiens) (UniProt Q92878+P49959+O60934)"}, "[3]": {"target": "RAD50;NBS1 (Homo sapiens;Homo sapiens) (UniProt Q92878+O60934)"}}}
{"substance": "3.0-kb linear DNA fragment", "values": [{"measurement": "binding signal (% DNA in tethered complexes)", "setting": "[1]", "value": 16}, {"measurement": "binding signal (% DNA in tethered complexes)", "setting": "[2]", "value": 20}, {"measurement": "binding signal (% DNA in tethered complexes)", "setting": "[3]", "value": 30}]}
